We go through 1 protein from paper PMC11867700, “TANGO2 is an acyl-CoA binding protein” (The Journal of Cell Biology, 2025).

The data set concerns the molecule itself. Nature of the data set: mass photometry; purified TANGO2.Flag; mass distribution; conditions not described.

B1: TANGO2 isoform 1-Flag (TANGO2.Iso1-Flag), purified (natural protein, human, UniProt Q6ICL3-1 1-276, looked up)
chain: MCIIFFKFDPRPVSKNAYRLILAANRDEFYSRPSKLADFWGNNNEILSGLDMEEGKEGGTWLGISTRGKLAALTNYLQPQLDWQARGRGELVTHFLTTDVDSLSYLKKVSMEGHLYNGFNLIAADLSTAKGDVICYYGNRGEPDPIVLTPGTYGLSNALLETPWRKLCFGKQLFLEAVERSQALPKDVLIASLLDVLNNEEAQLPDPAIEDQGGEYVQPMLSKYAAVCVRCPGYGTRTNTIILVDADGHVTFTERSMMDKDLSHWETRTYEFTLQS
notes: TANGO2 isoform 1, human, UniProt Q6ICL3-1; C-terminal in-frame fusion with the Flag peptide; also called TANGO2.Flag; purified TANGO2
B1: the binding result is given as “binds”.
